Substrate: O=C(O)c1cccc(O)c1O
Experiment: steady-state decarboxylation kinetics
Format: biochemical, Aspergillus oryzae
Details: Mg2+-loaded enzyme; decarboxylation direction

B1: 2,3-DHBD_Ao (Aspergillus oryzae RIB40) (protein)
chain: MLGKIALEEAFALPRFEEKTRWWASLFSTDAETHVKEITDINKIRIEHADKHGVGYQILSYTAPGVQDIWDPVEAQALAVEINDYIAEQVRVNPDRFGAFATLSMHNPKEAADELRRCVEKYGFKGALVNDTQRAGPDGDDMIFYDNADWDIFWQTCTELDVPFYMHPRNPTGTIYEKLWADRKWLVGPPLSFAHGVSLHVLGMVTNGVFDRHPKLQIIMGHLGEHVPFDMWRINHWFEDRKKLLGLAETCKKTIRDYFAENIWITTSGHFSTTTLNFCMAEVGSDRILFSIDYPFETFSDACEWFDNAELNGTDRLKIGRENAKKLFKLDSYKDSSA
notes: recombinant, purified by size exclusion chromatography
- Km: 208 µM
- kcat: 15 s–1
